Test results published in the supplement of paper PMC9112550, “Optimization of the antimicrobial peptide Bac7 by deep mutational scanning” (BMC Biology, 2022).

What follows are sequences tested on Escherichia coli TOP10 (assay: shrunken log2 fold change of peptide-encoding DNA abundance (4.5 h post-induction vs induction); higher = less antimicrobial activity (less host growth inhibition)). Conditions: time post-induction: 4.5 h; library: site-saturation at positions 5, 18, 19, 20.
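Also: peptides expressed intracellularly from a pBAD plasmid library in pooled LB shake-flask culture, induced with 0.3% L-arabinose, DNA abundance read by NGS, three biological replicates, DESeq2 with apeglm shrinkage.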

| Sequence | shrunken log2 fold change |
| --- | --- |
| RRIRNRPPRLPRPRPRPIADPRP | 0.0461 |
| RRIRNRPPRLPRPRPRPICKPRP | 0.0454 |
| RRIRNRPPRLPRPRPRPIDLPRP | -0.0431 |
| RRIRNRPPRLPRPRPRPIGGPRP | -0.00925 |
| RRIRNRPPRLPRPRPRPIIEPRP | 0.00312 |
| RRIRNRPPRLPRPRPRPIIIPRP | -0.663 |
| RRIRNRPPRLPRPRPRPIKRPRP | 0.0699 |
| RRIRNRPPRLPRPRPRPILGPRP | -0.00992 |
| RRIRNRPPRLPRPRPRPIMEPRP | -0.139 |
| RRIRNRPPRLPRPRPRPIMHPRP | 0.00105 |
| RRIRNRPPRLPRPRPRPINKPRP | -0.56 |
| RRIRNRPPRLPRPRPRPINLPRP | -0.176 |
| RRIRNRPPRLPRPRPRPIPFPRP | -0.0196 |
| RRIRNRPPRLPRPRPRPIPLPRP | 0.0142 |
| RRIRNRPPRLPRPRPRPIQLPRP | -0.203 |
| RRIRNRPPRLPRPRPRPITKPRP | -0.113 |
| RRIRNRPPRLPRPRPRPIVVPRP | 0.0207 |
| RRIRNRPPRLPRPRPRPIWNPRP | -0.146 |
| RRIRNRPPRLPRPRPRPIYAPRP | -0.71 |
| RRIRNRPPRLPRPRPRPIYDPRP | -0.4 |
| RRIRNRPPRLPRPRPRPKAPPRP | -0.0518 |
| RRIRNRPPRLPRPRPRPKAYPRP | 0.0121 |

| Sequence | shrunken log2 fold change |
| --- | --- |
| RRIRNRPPRLPRPRPRPKCKPRP | -0.261 |
| RRIRNRPPRLPRPRPRPKCNPRP | -0.819 |
| RRIRNRPPRLPRPRPRPKCTPRP | 0.119 |
| RRIRNRPPRLPRPRPRPKDAPRP | 0.0655 |
| RRIRNRPPRLPRPRPRPKDQPRP | -0.108 |
| RRIRNRPPRLPRPRPRPKECPRP | 0.00801 |
| RRIRNRPPRLPRPRPRPKELPRP | 0.0238 |
| RRIRNRPPRLPRPRPRPKGGPRP | 0.226 |
| RRIRNRPPRLPRPRPRPKHHPRP | -0.487 |
| RRIRNRPPRLPRPRPRPKHSPRP | -0.187 |
| RRIRNRPPRLPRPRPRPKHVPRP | -0.0669 |
| RRIRNRPPRLPRPRPRPKIFPRP | 0.19 |
| RRIRNRPPRLPRPRPRPKLSPRP | 0.0328 |
| RRIRNRPPRLPRPRPRPKNCPRP | -0.552 |
| RRIRNRPPRLPRPRPRPKNHPRP | -0.19 |
| RRIRNRPPRLPRPRPRPKNYPRP | -0.752 |
| RRIRNRPPRLPRPRPRPKQVPRP | -0.173 |
| RRIRNRPPRLPRPRPRPKRTPRP | -0.0256 |
| RRIRNRPPRLPRPRPRPKRWPRP | 0.0633 |
| RRIRNRPPRLPRPRPRPKSIPRP | -0.569 |
| RRIRNRPPRLPRPRPRPKTGPRP | -0.0778 |
| RRIRNRPPRLPRPRPRPKWYPRP | -0.517 |

| Sequence | shrunken log2 fold change |
| --- | --- |
| RRIRNRPPRLPRPRPRPKYSPRP | -0.379 |
| RRIRNRPPRLPRPRPRPLARPRP | 0.107 |
| RRIRNRPPRLPRPRPRPLCMPRP | -0.218 |
| RRIRNRPPRLPRPRPRPLDKPRP | -0.186 |
| RRIRNRPPRLPRPRPRPLDNPRP | -0.263 |
| RRIRNRPPRLPRPRPRPLEIPRP | 0.000705 |
| RRIRNRPPRLPRPRPRPLFDPRP | -0.298 |
| RRIRNRPPRLPRPRPRPLFFPRP | -0.217 |
| RRIRNRPPRLPRPRPRPLFGPRP | 0.0228 |
| RRIRNRPPRLPRPRPRPLGRPRP | 0.244 |
| RRIRNRPPRLPRPRPRPLGWPRP | 0.367 |
| RRIRNRPPRLPRPRPRPLHLPRP | -0.59 |
| RRIRNRPPRLPRPRPRPLKDPRP | -0.0618 |
| RRIRNRPPRLPRPRPRPLKEPRP | 0.00854 |
| RRIRNRPPRLPRPRPRPLKLPRP | -0.207 |
| RRIRNRPPRLPRPRPRPLLTPRP | -0.046 |
| RRIRNRPPRLPRPRPRPLLVPRP | -0.199 |
| RRIRNRPPRLPRPRPRPLNIPRP | -0.389 |
| RRIRNRPPRLPRPRPRPLNNPRP | -0.478 |
| RRIRNRPPRLPRPRPRPLPPPRP | 0.5 |
| RRIRNRPPRLPRPRPRPLRAPRP | 0.672 |
| RRIRNRPPRLPRPRPRPLSIPRP | -0.423 |

| Sequence | shrunken log2 fold change |
| --- | --- |
| RRIRNRPPRLPRPRPRPLTPPRP | 0.136 |
| RRIRNRPPRLPRPRPRPLYLPRP | -0.54 |
| RRIRNRPPRLPRPRPRPLYNPRP | -0.0372 |
| RRIRNRPPRLPRPRPRPLYPPRP | -0.586 |
| RRIRNRPPRLPRPRPRPMCCPRP | -0.406 |
| RRIRNRPPRLPRPRPRPMCHPRP | 0.0429 |
| RRIRNRPPRLPRPRPRPMDEPRP | 0.358 |
| RRIRNRPPRLPRPRPRPMDTPRP | -0.141 |
| RRIRNRPPRLPRPRPRPMECPRP | -0.0276 |
| RRIRNRPPRLPRPRPRPMFPPRP | -0.235 |
| RRIRNRPPRLPRPRPRPMFYPRP | -0.166 |
| RRIRNRPPRLPRPRPRPMICPRP | 0.0101 |
| RRIRNRPPRLPRPRPRPMIHPRP | -0.136 |
| RRIRNRPPRLPRPRPRPMNNPRP | -0.749 |
| RRIRNRPPRLPRPRPRPMPMPRP | 0.0119 |
| RRIRNRPPRLPRPRPRPMPRPRP | 0.11 |
| RRIRNRPPRLPRPRPRPMPYPRP | 0.0291 |
| RRIRNRPPRLPRPRPRPMQFPRP | -0.466 |
| RRIRNRPPRLPRPRPRPMQNPRP | -0.11 |
| RRIRNRPPRLPRPRPRPMQRPRP | 0.00752 |
| RRIRNRPPRLPRPRPRPMTPPRP | 0.244 |
| RRIRNRPPRLPRPRPRPMVKPRP | -0.00408 |

| Sequence | shrunken log2 fold change |
| --- | --- |
| RRIRNRPPRLPRPRPRPMWNPRP | -0.294 |
| RRIRNRPPRLPRPRPRPMWQPRP | -0.222 |
| RRIRNRPPRLPRPRPRPMYSPRP | -0.479 |
| RRIRNRPPRLPRPRPRPNAQPRP | -0.119 |
| RRIRNRPPRLPRPRPRPNAWPRP | 0.000665 |
| RRIRNRPPRLPRPRPRPNCWPRP | 0.241 |
| RRIRNRPPRLPRPRPRPNDWPRP | 0.0943 |
| RRIRNRPPRLPRPRPRPNEPPRP | -0.000856 |
| RRIRNRPPRLPRPRPRPNERPRP | 0.0308 |
| RRIRNRPPRLPRPRPRPNEVPRP | -0.0252 |
| RRIRNRPPRLPRPRPRPNGNPRP | -0.0621 |
| RRIRNRPPRLPRPRPRPNHGPRP | -0.0113 |
| RRIRNRPPRLPRPRPRPNHTPRP | -0.773 |
| RRIRNRPPRLPRPRPRPNHYPRP | -0.885 |
| RRIRNRPPRLPRPRPRPNIEPRP | -0.027 |
| RRIRNRPPRLPRPRPRPNKIPRP | -0.658 |
| RRIRNRPPRLPRPRPRPNKSPRP | -0.338 |
| RRIRNRPPRLPRPRPRPNMGPRP | -0.00804 |
| RRIRNRPPRLPRPRPRPNMYPRP | -0.392 |
| RRIRNRPPRLPRPRPRPNNCPRP | -0.0864 |
| RRIRNRPPRLPRPRPRPNNGPRP | -0.0309 |
